B1: glmS ribozyme (parent)
chain: AUAAAAGCGCCAGAACUACAGAAAUGUAGUUGACGAGGAGGAGGUUUAUCGAAUUUUCGGCGGAUGCCUCCAAA

± gives the standard error. For some assays here: This sample holds only a part of the variants without activity.

Holding throughout (conditions): with glucosamine-6-phosphate
In data set [1] the parent is B1. Briefly: kcat; higher = faster cleavage; RNA array. The method, boiled down:
(§1)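 Sequenced MiSeq chips were the platform: E. coli RNA polymerase transcribed barcoded ribozyme variants on them in situ, and a hybridised Cy3 probe tracked these at 37 °C. After glucosamine-6-phosphate (40 μM to 10 mM) in HEPES/KCl/Mg(OAc)2 buffer was flowed in, tiles were imaged over ~14 h. Signals normalised to baseline and to non-cleaving reference variants were reduced to per-tile medians and fit to one- or two-exponential decays to obtain kobs. kcat and KM were derived through weighted Michaelis–Menten fits across concentrations.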

Variants of B1 are the subject of data set [2]. Briefly: self-cleavage kobs at 640 uM GlcN6P; higher = faster cleavage; RNA array. The method, boiled down: as §1
Data set [3] covers variants of B1. As to the kind of experiment: self-cleavage kobs at 2500 uM GlcN6P; higher = faster cleavage; RNA array. Put shortly:
as §1

Variants of B1 are the subject of data set [4]. As to the kind of experiment: KM; higher = weaker cofactor use; RNA array. Put shortly: as §1
Variants of B1 are the subject of data set [5]. As to the kind of experiment: self-cleavage kobs at 10000 uM GlcN6P; higher = faster cleavage; RNA array. Put shortly:
as §1

Data set [6] covers variants of B1. As to the kind of experiment: self-cleavage kobs at 160 uM GlcN6P; higher = faster cleavage; RNA array. The method, boiled down:
as §1

The variants in data set [7] derive from B1. As to the kind of experiment: self-cleavage kobs at 40 uM GlcN6P; higher = faster cleavage; RNA array. Put shortly: as §1

For G62A U69G, the kcat – broadly, the maximal rate divided by the concentration of active sites – in data set [1] was found to be 3.25e-05 ± 8.9e-06 s⁻¹. Moreover, the “self-cleavage kobs at 640 uM GlcN6P” value in data set [2] was 3.57e-05 ± 1.7e-05 s⁻¹. Moreover, in data set [3], the “self-cleavage kobs at 2500 uM GlcN6P” value amounted to 3.47e-05 ± 1.6e-05 s⁻¹.

As for C16A U69A, in data set [1], the kcat is 3.39e-05 ± 9e-06 s⁻¹. In data set [3], the “self-cleavage kobs at 2500 uM GlcN6P” value is 4.42e-05 ± 1.3e-05 s⁻¹.

Take A6C C71U: the kcat in data set [1] is 9.59e-05 ± 6.3e-06 s⁻¹. In data set [4], the KM (usually the substrate concentration at which the rate is half of its maximum) turned out to be 1150 ± 280 µM. The “self-cleavage kobs at 640 uM GlcN6P” value in data set [2] was determined as 2.89e-05 ± 1.2e-05 s⁻¹. Moreover, the “self-cleavage kobs at 2500 uM GlcN6P” value in data set [3] worked out at 7.07e-05 ± 9.3e-06 s⁻¹. Further, the “self-cleavage kobs at 10000 uM GlcN6P” value in data set [5] is 8.35e-05 ± 9.7e-06 s⁻¹.

On to A14G C61A, for which, in data set [1], the kcat amounted to 1.1e-05 ± 4.8e-06 s⁻¹.

Turning to G35A U49C, the kcat in data set [1] is under 1e-05 s⁻¹. In addition, the “self-cleavage kobs at 640 uM GlcN6P” value in data set [2] was under 1e-05 s⁻¹. The “self-cleavage kobs at 10000 uM GlcN6P” value in data set [5] was under 1e-05 s⁻¹.

As for C58A C68U, the kcat in data set [1] was found to be 0.000273 ± 5.2e-05 s⁻¹. Moreover, in data set [4], the KM amounted to 2100 ± 790 µM. Moreover, the “self-cleavage kobs at 160 uM GlcN6P” value in data set [6] was 3.66e-05 ± 1e-05 s⁻¹. For the same variant, the “self-cleavage kobs at 640 uM GlcN6P” value in data set [2] stood at 6.75e-05 ± 7e-06 s⁻¹. Moreover, the “self-cleavage kobs at 2500 uM GlcN6P” value in data set [3] was determined as 0.000129 ± 1.2e-05 s⁻¹. Moreover, the “self-cleavage kobs at 10000 uM GlcN6P” value in data set [5] was 0.000251 ± 2.3e-05 s⁻¹.

With A33C C50A, the kcat in data set [1] was under 1e-05 s⁻¹.

A52C C68A: the kcat in data set [1] is 2.96e-05 ± 7.8e-06 s⁻¹. In addition, in data set [2], the “self-cleavage kobs at 640 uM GlcN6P” value came out at 3.82e-05 ± 1.2e-05 s⁻¹. Also, the “self-cleavage kobs at 2500 uM GlcN6P” value in data set [3] came out at 3.05e-05 ± 1.2e-05 s⁻¹.

On to C10U A15G, for which the turnover number (kcat) in data set [1] was 2.54e-05 ± 2e-06 s⁻¹. Also, the KM in data set [4] worked out at 4700 ± 910 µM. Further, in data set [7], the “self-cleavage kobs at 40 uM GlcN6P” value was under 1e-05 s⁻¹.

Regarding A36U U69A, in data set [1], the kcat came to 4.58e-05 ± 1.6e-05 s⁻¹. Moreover, the “self-cleavage kobs at 40 uM GlcN6P” value in data set [7] turned out to be 5.11e-05 ± 1.6e-05 s⁻¹. Moreover, in data set [3], the “self-cleavage kobs at 2500 uM GlcN6P” value was found to be 7.35e-05 ± 2.7e-05 s⁻¹.

For the variant U47G G51C U57C C68U, in data set [1], the kcat stood at 1.54e-05 ± 3.7e-06 s⁻¹. In addition, the “self-cleavage kobs at 40 uM GlcN6P” value in data set [7] was under 1e-05 s⁻¹.

Consider U31A U69G, for which the kcat in data set [1] was 5.26e-05 ± 7e-06 s⁻¹. For the same variant, the “self-cleavage kobs at 160 uM GlcN6P” value in data set [6] amounted to 4.7e-05 ± 1.3e-05 s⁻¹. Besides, in data set [2], the “self-cleavage kobs at 640 uM GlcN6P” value is 6.47e-05 ± 1.5e-05 s⁻¹. Also, in data set [3], the “self-cleavage kobs at 2500 uM GlcN6P” value came to 5.62e-05 ± 1.2e-05 s⁻¹. The “self-cleavage kobs at 10000 uM GlcN6P” value in data set [5] amounted to 4.26e-05 ± 9.9e-06 s⁻¹.

On to A15U U49C, for which the kcat in data set [1] was under 1e-05 s⁻¹. In addition, in data set [7], the “self-cleavage kobs at 40 uM GlcN6P” value was under 1e-05 s⁻¹. Moreover, the “self-cleavage kobs at 640 uM GlcN6P” value in data set [2] is under 1e-05 s⁻¹. Besides, the “self-cleavage kobs at 10000 uM GlcN6P” value in data set [5] was under 1e-05 s⁻¹.

As for A15U G32U, the kcat in data set [1] was found to be 0.00104 ± 0.0003 s⁻¹. The KM in data set [4] was 6790 ± 2800 µM. For the same variant, the “self-cleavage kobs at 640 uM GlcN6P” value in data set [2] came out at 0.000103 ± 1.2e-05 s⁻¹. Also, in data set [3], the “self-cleavage kobs at 2500 uM GlcN6P” value stood at 0.000266 ± 2.9e-05 s⁻¹. The “self-cleavage kobs at 10000 uM GlcN6P” value in data set [5] stood at 0.000628 ± 6.4e-05 s⁻¹.

As for G59U C67U, the kcat in data set [1] was 2.54e-05 ± 5.9e-06 s⁻¹. The “self-cleavage kobs at 2500 uM GlcN6P” value in data set [3] is 3.07e-05 ± 7.5e-06 s⁻¹.

For the variant A33C A39G, the kcat in data set [1] stood at 0.0011 ± 0.0002 s⁻¹. Moreover, the KM in data set [4] stood at 5030 ± 1400 µM. Also, in data set [2], the “self-cleavage kobs at 640 uM GlcN6P” value worked out at 0.000138 ± 1.9e-05 s⁻¹. The “self-cleavage kobs at 2500 uM GlcN6P” value in data set [3] came to 0.000373 ± 9.9e-05 s⁻¹. Also, the “self-cleavage kobs at 10000 uM GlcN6P” value in data set [5] is 0.000722 ± 8.1e-05 s⁻¹.

In the case of A39U C71A, in data set [1], the kcat turned out to be 0.00326 ± 0.00043 s⁻¹. The KM in data set [4] turned out to be 1880 ± 370 µM. For the same variant, the “self-cleavage kobs at 40 uM GlcN6P” value in data set [7] was 6.47e-05 ± 9.1e-06 s⁻¹. For the same variant, the “self-cleavage kobs at 160 uM GlcN6P” value in data set [6] was 0.000353 ± 6.3e-05 s⁻¹. Further, the “self-cleavage kobs at 640 uM GlcN6P” value in data set [2] was determined as 0.000728 ± 0.00015 s⁻¹. For the same variant, the “self-cleavage kobs at 2500 uM GlcN6P” value in data set [3] worked out at 0.00175 ± 0.00039 s⁻¹. The “self-cleavage kobs at 10000 uM GlcN6P” value in data set [5] turned out to be 0.0028 ± 0.00031 s⁻¹.

As to A12G G13U, in data set [1], the catalytic constant (kcat) was 9.52e-05 ± 1e-06 s⁻¹. For the same variant, the KM in data set [4] came out at 1020 ± 43 µM. Further, in data set [2], the “self-cleavage kobs at 640 uM GlcN6P” value came out at 3.63e-05 ± 8.6e-06 s⁻¹. In data set [3], the “self-cleavage kobs at 2500 uM GlcN6P” value turned out to be 6.89e-05 ± 1.1e-05 s⁻¹. Moreover, the “self-cleavage kobs at 10000 uM GlcN6P” value in data set [5] is 8.62e-05 ± 7.6e-06 s⁻¹.

For U30C G40C, the kcat in data set [1] was found to be 4.04e-05 ± 5.2e-06 s⁻¹. Further, the “self-cleavage kobs at 2500 uM GlcN6P” value in data set [3] worked out at 2.58e-05 ± 1.2e-05 s⁻¹. In addition, the “self-cleavage kobs at 10000 uM GlcN6P” value in data set [5] was determined as 3.87e-05 ± 1.2e-05 s⁻¹.

As for U46C A48U, the kcat in data set [1] turned out to be 8.27e-05 ± 1.4e-05 s⁻¹. In data set [3], the “self-cleavage kobs at 2500 uM GlcN6P” value turned out to be 6.44e-05 ± 1.3e-05 s⁻¹. Further, the “self-cleavage kobs at 10000 uM GlcN6P” value in data set [5] amounted to 6.9e-05 ± 9e-06 s⁻¹.

The values above are taken from the supplement of paper PMC7125110.
